Experiment: label from the status in PepcDB records
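Also: failed if final PepcDB status was selected cloned or expressed and not failed if soluble or beyond.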

Sequence | protein production
MATIDLVRHAEPDITIHDDFLRPLTSAGQRQTQQLVDSLHQYPYTAFFSSPLKRAVDTITPIADDHGLPVQKNELLVERKMPAWLPNFSDYVNQQWQDLTFFEKPGESIHQVQERYLSFLYGLPSSAFVAVGSHGTAISSLVEAAIPGIGYHFFSKLGYAAVTRIEMHAGNMVHLAVWEPKSKTFKVLK | failed
MATIYLVRHGQASFGKENYDQLSPRGWEQGRILGRWLAGKVEPGAVFGGNLQRHRETVEAITTGYGVSLPDMQVLEGLNEFDHLEVVERLRPEWADKQVMARDLASFPKPAKAFQQAFEKAVARWVSGDYDHEYTETWIDFRQRVGAALDELIELAGGADVIVSTSGGPIAVIAQHLLELSDRKALEMNNVIANTSVSRILYSGPRRSLAVFNNYSHLEAEDPALVTFR | failed
MATKAIVVEGGAMRGVFASGVLDAFLERDYKPFDFAIGVSAGASNLIGYLTDYPHRSINVITKLATSKRFFDPTRFLKGGDLIDVKWLFEESNRLYPVDEKKLFEGIPFFAATTNVDTGKADYYRVTRENFHHAIEATTALPIAYKHTPCFSGGCYTDGGVADSIPVREAYRRGARDITVVLSHPLNYSKKPVKNTWLMNKLFAEHPKMAEAMLHRSENYNESLEFIRNPPQGTRVRVIAPPDEFHVQRLSMRQSVLLEGYEMGLQEGRTHITNLSGGYGLSRENCHFCL | failed
MATKNSAPLASFIDLLLDAVCAVDVEGRFVFVSAACERVFGYTADELIGRPMIELVHPADRERTLQAAREIMGGVPKPNFENRYVRKDGRVAHILWSARWSEVDQLRIAVARDITERKQAESRQAALYAISEAAHATEDLLVLFRHVHRIIGEWLPALNCSLALYDERSASLSFPYHVDDCEGSPELPGTLIERFCVEVLQCGQPLLLAPECPVNRVLWSEFAAIQGSRCWLGVPLNSQKGTIGVLMVKSAPGTESYSEQDQELLQYVSAQLAAAIERKQLHARLHYMAEYDQLTHLPNRELLRERLRSALARARRESGRMALLYVDLDKFKEVNDTCGHAVGDMLLQAVANRLKGCVRETDTVARIGGDEFVILLESVQHSEDAQRVAEKIRRTLGEPLRLDGHSLNILPSIGIGLYPEHGLEEKQLFKHADEAMYAVKRAQKSRSNA | failed
MATKRANGEGSIGKYKDGWRSRIMIGYNEDGKPLRKEFYGKTQKEVKDKLDAYKKQYYLSSDISDDKITLEHWFYNWLFEYRIKDLKPKSFERYESIYRNYIKDTDLGNVKLKYLRVSHIQKYYNRLLDSNKSIPTIRQINTKLKTCLSEAEKQGLIQRNYCTMVNIPVEKKENKLEILTLEQQKSFIKAIDGHKLEVLFLLALGTGLRLGELLGLKWFDIDFKKSNLTVKRTLQRTYFIDKTGNRELKVLEQGPKTSNSYRTVPIPKDVLNKLKEHKVNQNTDILKAGELYINNNYVFCNELGIPIDDKRPLRNLKSILNSLNIEPIKFHGLRKTYATRLFENDVPPKTVQVLMGHYDISITLNIYTQVMEDKKVEAVEKLDKIFSL | failed
MATPKLEAYRKKRDFSKTPEPVGNLTAGGNRFVVHKHHATADHYDLRLEVDGVLKSWAVPKGPSLNPADKRLAVETEDHPLDYIDFEGVIPEGEYGGGPMIVWDKGVWAPMGDVDDDLRKGAFKFRLAGEKLNGGWMLARLKRRPGEEDQRNWLLFKERDPAADTSIDILAARPESVKSGRRIEELVEKPKAPPKPVKLNPGALAGAVKAAQPERIEPQLATQTILPPEAEKDSKKPERWLHEIKFDGYRTMAHVADGKVRLVTRGGLDWTKRYGDLPEVFRRLPCRDVIIDGEIVVLDETGVSRFALLQDALSTGAGNSLVFYAFDLLHLNGWNLFDVPLEKRKALLKQLLAGQVSSRSAIQFSDHVLGEGRALYDRASEMGLEGIVSKRISAPYRSGRSKTWTKTKALKAEDFVIVGYTVSEAAEGIASLALGEWADGELEYRGKVGTGFDAQMLKELLARLEPLRAGAAKLEGAPREIIWVRPLLRAHIHYGNRTTDNVLRHAVFKGLRDVELSTPVSMSRKRLISDADLAGISITNPTRRLFGKSGPTKLDLAVYYAMIGDFMLPHILGRPVSLVRCPTGRTQDCFFQRHPFTGMPPSVATFQATNSEGEAKTYLSVEDARGYLALAQFGVVEFHNWGTTRKLLGKPDRVVFDLDPGEGIAWREVVEAAIHIKAELEALALVPFVKTSGGRGVHVVVPVVPKLDWKKFHQATSALATRLAATAPATFTTTMGKDNRIRRIFIDFHRNARSHTWAAPYSLRARTNLPASTPLSWADLETIDAPADLNYSSLPGLLATSGDPWADIDDFARDLPIL | failed
MATQAAGIFSPAITTTTSAVKKLHLFSSSHRPKSLSFTKTAIRAEKTESSSAAPAVKEAPVGFTPPQLDPNTPSPIFAGSTGGLLRKAQVEEFYVITWNSPKEQIFEMPTGGAAIMREGPNLLKLARKEQCLALGTRLRSKYKITYQFYRVFPNGEVQYLHPKDGVYPEKANPGREGVGLNMRSIGKNVSPIEVKFTGKQSYDL | failed
MATQARLPLPVGSTTSVSVVIPAKNVAAYVGETLASALAQGEVTEVIVVDDGSTDNTIAIVRAIRDPRLRLMTNDSAGVSAARNLGARHASGEWLLFLDADDRLRPGAVAALLAAARGAPRAVLVYGDYNTIDSEGRQVGRRDLLKGRRKPSGDVLTRLAASNFIVNGGIALARAEAFRAIGGFDTSLRYCEDWHCWCRLAAIGEFEFAPKLLLDYRLHTANTMNAAVRTPQDFFPAIARVFDDGLILARLPEGTAARLRQAAEIHLVTYSAMQAVRFGRYRQAFTYLGMVGRRSLKSLPRSALRVALACFGILEHHHHHH | failed
MATRQPLDATACSLMVGLCAIWGLQQVALKATASDIAPVLQIALRSGGAALLVGLLMCWRGERLGLGDGHWRPGLLVGGLFALEFLLVGEGLRYTTASHMAIFLYTAPIFAALGLHWLMPAERLKPAQWLGIGVAFGGIVVAFSGPAAAGHGGGSHVLLGDFLGVLGGVAWGATTVVVRCSRLASSPTTRTLQYQLLGAFVWLGLAALLTDQTSIHFTPLVVASLGFQVLVVSFASFLIWFTLLRRYPASRLGVLSFMTPLFGIGFGVWLLHEPLEPNFIFGALLVLAGIVMVSGYEWLRQRFKRNRESPVAPRSS | failed
MATRSCVSRGSAGSAAAGPVEAAIRAKLEQALSPEVLELRNESGGHAVPAGSETHFRVAVVSSRFEGMSPLQRHRLVHEALSEELAGPVHALAIQAKTPAQWRENPQLDISPPCLG | not failed
MATTLLSPTRFVHGLRFDNLRGDIFGGITAAIVALPLALAFGVASGAGPIAGLYGAICTGFFAALFGGTPAQISGPTGPMTVVMASTFANLTASNPENGWAMALTVVMFGGIFQVVLGLLGLGKYITFMPYTVISGFMSGIGVIIVILQIAPLLGHQTAPGVVPSLQAIPTYLNDVNFAALGLGLIALAIVFFSPPRLNRILPAPLIALVLGTIISMIFFGNVSLPRIGEIPSGLPSLHLPYLSWGSLQQMLLYSIMLAVLGSLDSLLTSLVADNISRSHHDSDRELVGQGIGNLVSGLCGGLPGAGATMRTVININSGGKTPIAGMIHALILLMIVLKAGQLTEPIPHAVLAGILIKVGIDIVDWSFLKRAHQLSTKGAGLMYLVLGLTVFVDLITAVAVGVFVANLFTVKNLTDLQLESIKSVTRADGEDWLLEEEQQILRAANGRIFMFHLSGPMSFGAAKSIARRLAIVENYDVLILDLATVPRLGVTALLAIETMLKDALAKQREVFLVGAKGQVQARLQRLPVLAQLSPHHRLESRLLALQMAAVCINVD | failed
MATTPRVDAGGGSSMFAAVPLLALPVIVYNLVALTLTGGFKATDATARMNEALFTIHMTSRTDWAVSLGDLLMAASLVVLFVELLKSTTSRKIAIINHSLSMVLFILCLVEFLLAPAFATSTFFLITLMVLLDVLAGFIVTIVAARRDVDFGDN | failed
MATTSAQTSPTEFGAGLPEAEDHSESAEPQSVEAEVIDERYADVWEKIQHARTIDVHDDAEVRKQRNFFDDKQKFMTQVTQRAEPFLYYIVSQLEARNMPLELALLPIVESGYNPLAQANGPAGLWQMIPATGRNFGLTINSAYDGRKDALASTDAVLDYLQHLYNTLGNDWINAVAGYNSGELVIKAAIDRNKAKGKPTDFWSLNIPARQVQTVPKWLAFIQIIREPSHYNLKVMPIANRPFLERLPAPNGVEISQIANAAGLTKAEFKTYNPGYRQSVIPSKGKYQIALPIENIGHYQENQHKLYAQKRYDSQTYIVKSGDSLGTIAAKFDLSVKELKQANNLTSDRLKIGQELTLLTPMAANDNEPEPVKTKANTDKSSTKANASSTKATSSKSTDKPVAKAKTYKVKSGDSLDKIARKSKVKLADLMKWNQLNAKSIIKPGQELKISELEHHHHHH | failed
MATVIAKPEAIAPEPKRRFTWPRGSRLGRLIVVLNVVALAIVIVGALILNELRNGLVNARIDSLSTQGELIANVIDQSATVGEPEPALDPYTASQIFQLLFIPRSQRARLFDAQGKALADSFVVADRVDWKVLPPARKPDQKDDDARTTPDRAAKAKRAQEALANEIAQAMRGRTVAGTRIAENGERVVSVSIPIQHVKAVLGVLTLEASDVDEIIAAQRKALLPFIAVAMLAILTSSVLLHRLIAVPVLRLARAADHVRLQGARAISLPDLSERKDELGDLSRSLEDMTHSLSERMDAIERFAADVAHEIKNPLTSIRSAIETLDLVTEPAARARLLAILQNDVNRLDRLVTDISNASRLDAELSREHPKALDLGRLLTEVVSLYENQWRPGDAPGSVRVSLSLADPSQPAIILGRETPIGQVFRNLIDNARSFSPADGEVRVTLSRTRGGLIAAVEDDGPGMPPENLETIFERFYTSRPKGRAFGGNSGLGLSIARQIVETHGGTVHAENRKDANGAVVGARFVVELPDARE | failed
MATVPSNPAFAPTLSTRGRLNGILFVALFAVAVTQLAAMPAIANLGISPLIVGIVAGALYGNALRDGVPASWAAGINFSARGLLRIAVAFFGLRVSLQEIAEVGWSGLIVSVLVVTSTLLIGLWCGMKVFKLDRDTALLTAAGSAICGAAAVLAFESALRSAPHKSAMAVGSVVLFGTLSMFLYPLAINAGWLHLDTMGAGLLLGGTVHEVAQVVGAASNVSPEATHVATIVKMTRVMLLVPVLLVVGLWISRSRKAGQAQGNGRIAMPWFAFGFLALVLVNSMQVLPGSVTQAVNSLDTFALTMAMTALGMETRFSQIRQAGPRALATGAILNLWLVGGGLAITLGVQKLLG | failed
MATYSLANERLRALEDIEREIGAILQNAGTAILELSKEKTNERLLDRQAAAFTTSVQHVEAELSAQIRYLTQVATGQPHEGSSYSSRKDCQMALKRVDYARLKISDVARTCEQMLEN | failed
MAVDWERRIDFDRLRTQRLTRALDALERSELGALLLFDMNNIRYTTATHIGNWARDKLFRMALLIRGQAPILWDIGSAARLHQMQAPWLPQESWRAGLSTWRGAIDDEVGVQTGNAKKVADLLREHGLANDPVGVDVVELPMLKALEAEGLTIVDGQGLMLDVRSIKTVDEIALLDHAAACVDAAYEELYKFLRVGVKENETVALVNKVLYELGSEEVEAVNAISGERCSPHPHVFSDRMIRPMDTAYFDIVHSYMGYRTCYYRTLNVAGATRAQRDAYKRAREYIDLAISEVKPGVLTSDIVKHFPAAQEFGFASEEEAFGLQYCHGVGLSVWEKPLMSRYHSFDHPVEIKEGMVFALETYWPTADGSSAARIEEEVEVTATGARVITRFPADELLVAGTRYWNGFDFPEIKAPIGRGVASGVAATNGAGAS | failed
MAVFVALGAFLMTLAGGWTAQRVTDRRHLVLGLAGGLMLGVVGMDLLPEALDAAGGKVFGVPAALLLFVAGFLLAHLVERLLAHRQAAHGGAESNGRAPEVGLTAAAAMVGHSAMDGVAIGAAFQVGGGMGLAVAVAVIAHDFADGFNTYTLTALYGNARRKAVIMLVADAVAPVLGAASTLAFTIPERLLGGYLALFGGALLYLAAAEILPEAHHEHPARSTLLCTVAGVGFIWLVVGLAG | failed
MAVIADPETAQGFRLAGLEGYGASSAEEAQSLLETLVERGGYALVAVDEALLSDPERAVERLMRGRDLPVLLPIAGLKEAFQGHDVEGYMRELVRKTIGFDIKLLEHHHHHH | failed

Reference: a protein production outcome set (Wang et al. 2014)
